PMC10034259

Target: cys-protein G conjugated to a peptide nucleic acid strand (PG-PNA)

RBD, Fc (SARS-CoV-2 spike receptor binding domain with Fc) (from UniProt P0DTC2) (Fc fusion)
stoichiometry N: 2.82 RBD:PG
